Source: patent US20210388087A1 (Chugai, published 2021)
Numbering of substitutions follows the chain as printed. In names and notes the source's numbering stands.

B1: H183/L072 VH N31G (antibody, name in Kabat numbering, V domains shown)
VH: QVQLVESGGGLVQPGRSLRLSCAASGFTFSGAWMHWVRQAPGKGLEWVAQIKDKGNAYAAYYAPSVKGRFTISRDDSKNSIYLQMNSLKTEDTAVYYCHYVHYASASTVLPAFGVDAWGQGTTVTVSS
VL: DIVMTQSPLSLPVTPGEPASISCQASQELVHMNRNTYLHWYQQKPGQAPRLLIYKVSNRFPGVPDRFSGSGSGTDFTLKISRVEAEDVGVYYCAQGTSVPFTFGQGTKLEIK
B2: H183/L072 VH N53Q (antibody, name in Kabat numbering, V domains shown)
VH: B1 VH with G31N, N56Q
VL: B1 VL
B3: H183/L072 VH N31H (antibody, name in Kabat numbering, V domains shown)
VH: B1 VH with G31H
VL: B1 VL
B4: H183/L072 VH N53W (antibody, name in Kabat numbering, V domains shown)
VH: B1 VH with G31N, N56W
VL: B1 VL
B5: H183/L072 VH N53F (antibody, name in Kabat numbering, V domains shown)
VH: B1 VH with G31N, N56F
VL: B1 VL
B6: H183/L072 VH N31T (antibody, name in Kabat numbering, V domains shown)
VH: B1 VH with G31T
VL: B1 VL
B7: H183/L072 VH N53L (antibody, name in Kabat numbering, V domains shown)
VH: B1 VH with G31N, N56L
VL: B1 VL
B8: H183/L072 VH N31P (antibody, name in Kabat numbering, V domains shown)
VH: B1 VH with G31P
VL: B1 VL
B9: H183/L072 VH N53T (antibody, name in Kabat numbering, V domains shown)
VH: B1 VH with G31N, N56T
VL: B1 VL
B10: H183/L072 VH N31V (antibody, name in Kabat numbering, V domains shown)
VH: B1 VH with G31V
VL: B1 VL
B11: H183/L072 VH N31Y (antibody, name in Kabat numbering, V domains shown)
VH: B1 VH with G31Y
VL: B1 VL
B12: H183/L072 VH N53G (antibody, name in Kabat numbering, V domains shown)
VH: B1 VH with G31N, N56G
VL: B1 VL
B13: H183/L072 VH N31K (antibody, name in Kabat numbering, V domains shown)
VH: B1 VH with G31K
VL: B1 VL
B14: H183/L072 VH N31M (antibody, name in Kabat numbering, V domains shown)
VH: B1 VH with G31M
VL: B1 VL
B15: H183/L072 VH N53E (antibody, name in Kabat numbering, V domains shown)
VH: B1 VH with G31N, N56E
VL: B1 VL
B16: H183/L072 VH N53A (antibody, name in Kabat numbering, V domains shown)
VH: B1 VH with G31N, N56A
VL: B1 VL
B17: H183/L072 VH N31L (antibody, name in Kabat numbering, V domains shown)
VH: B1 VH with G31L
VL: B1 VL
B18: H183/L072 VH N53V (antibody, name in Kabat numbering, V domains shown)
VH: B1 VH with G31N, N56V
VL: B1 VL
B19: H183/L072 VH N53R (antibody, name in Kabat numbering, V domains shown)
VH: B1 VH with G31N, N56R
VL: B1 VL
B20: H183/L072 VH N53I (antibody, name in Kabat numbering, V domains shown)
VH: B1 VH with G31N, N56I
VL: B1 VL
B21: H183/L072 VH N53H (antibody, name in Kabat numbering, V domains shown)
VH: B1 VH with G31N, N56H
VL: B1 VL
B22: H183/L072 VH N53K (antibody, name in Kabat numbering, V domains shown)
VH: B1 VH with G31N, N56K
VL: B1 VL
B23: H183/L072 VH N31R (antibody, name in Kabat numbering, V domains shown)
VH: B1 VH with G31R
VL: B1 VL
B24: H183/L072 VH N31W (antibody, name in Kabat numbering, V domains shown)
VH: B1 VH with G31W
VL: B1 VL
B25: H183/L072 VH N53P (antibody, name in Kabat numbering, V domains shown)
VH: B1 VH with G31N, N56P
VL: B1 VL
B26: H183/L072 VH N53S (antibody, name in Kabat numbering, V domains shown)
VH: B1 VH with G31N, N56S
VL: B1 VL
B27: H183/L072 VH N53D (antibody, name in Kabat numbering, V domains shown)
VH: B1 VH with G31N, N56D
VL: B1 VL
B28: H183/L072 VH N53M (antibody, name in Kabat numbering, V domains shown)
VH: B1 VH with G31N, N56M
VL: B1 VL
B29: H183/L072 VH N31S (antibody, name in Kabat numbering, V domains shown)
VH: B1 VH with G31S
VL: B1 VL
B30: H183/L072 VH N31Q (antibody, name in Kabat numbering, V domains shown)
VH: B1 VH with G31Q
VL: B1 VL
B31: H183/L072 VH N31I (antibody, name in Kabat numbering, V domains shown)
VH: B1 VH with G31I
VL: B1 VL

Target: T1, Human CD3eg linker (human)
T1 construct: Single chain: epsilon and gamma subunits of human CD3 joined by a 29-mer linker, Flag-tag at the C-terminus; also called recombinant human CD3
T1 chain: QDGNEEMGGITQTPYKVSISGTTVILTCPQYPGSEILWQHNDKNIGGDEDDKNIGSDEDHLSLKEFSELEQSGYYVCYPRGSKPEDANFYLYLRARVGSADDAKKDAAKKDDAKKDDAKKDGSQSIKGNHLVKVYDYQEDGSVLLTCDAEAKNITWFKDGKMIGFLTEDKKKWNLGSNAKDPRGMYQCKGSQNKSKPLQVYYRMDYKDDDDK
Assay: Biacore SPR, vs template H183/L072

| Binder | fold change of affinity [fold] |
| --- | --- |
| B1 | 0.3 |
| B2 | 0.5 |
| B3 | 0.3 |
| B4 | 1.2 |
| B5 | 0.8 |
| B6 | 0.6 |
| B7 | 0.6 |
| B8 | 0.1 |
| B9 | 0.6 |
| B10 | 0.5 |
| B11 | 0.3 |
| B12 | 0.4 |
| B13 | 0.4 |
| B14 | 0.2 |
| B15 | 0.5 |
| B16 | 0.7 |

| Binder | fold change of affinity [fold] |
| --- | --- |
| B17 | 0.2 |
| B18 | 0.5 |
| B19 | 0.8 |
| B20 | 0.4 |
| B21 | 1.1 |
| B22 | 0.6 |
| B23 | 0.5 |
| B24 | 0.4 |
| B25 | 0 |
| B26 | 0.8 |
| B27 | 0.4 |
| B28 | 0.5 |
| B29 | 0.5 |
| B30 | 0.2 |
| B31 | 0.5 |
